In the supplement of paper PMC10567573:

B1: MCOLN1 (parent)
chain: EEEDLRRRLKYFFMSPCDKFRAKG

Variants of: B1
Test: protein stability index of a GFP-peptide fusion (GPS, HEK-293T) (PSI 1-6); higher = more stable
Conditions: c terminus: a fixed tail appended
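Note: lentivirally expressed fusions sorted by FACS into six bins by GFP to DsRed ratio, PSI derived from sequencing read proportions per bin multiplied by bin number.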

In order of falling protein stability index:
1. EEEDLRRRLKYNFMSPCDKFRAKG  4.11
2. EEEDLRRRLKYFPMSPCDKFRAKG  3.97
3. EEEDLRRRSKYFFMSPCDKFRAKG  3.91
4. EEEDLRRRLKYEFMSPCDKFRAKG  3.9
5. EEEDLRRRLKYFAMSPCDKFRAKG  3.88
6. EEEDLRRRLKYFYMSPCDKFRAKG  3.81
7. EEEDLRRRLKYFCMSPCDKFRAKG  3.8
8. EEEDLRRRLKYFGMSPCDKFRAKG  3.78
9. EEEDLRRRLKYFNMSPCDKFRAKG  3.77
10. EEEDLRRRLKYFHMSPCDKFRAKG  3.75
11. EEEDLRRRLKYFEMSPCDKFRAKG  3.74
12. EEEDLRRRLKEFFMSPCDKFRAKG  3.73
13. EEEDLRRRLKYLFMSPCDKFRAKG  3.73
14. EEEDLRRRQKYFFMSPCDKFRAKG  3.7
15. EEEDLRRRLKYFQMSPCDKFRAKG  3.65
16. EEEDLRRRPKYFFMSPCDKFRAKG  3.64
17. EEEDLRRRGKYFFMSPCDKFRAKG  3.64
18. EEEDLRRRLKYTFMSPCDKFRAKG  3.62
19. EEEDLRRRLKYDFMSPCDKFRAKG  3.61
20. EEEDLRRRLKYFTMSPCDKFRAKG  3.61
21. EEEDLRRRLKYSFMSPCDKFRAKG  3.58
22. EEEDLRRRLKYFFMSPQDKFRAKG  3.58
23. EEEDLRRRLKYPFMSPCDKFRAKG  3.56
24. EEEDLRRRLKYFFGSPCDKFRAKG  3.56
25. EEEDLRRRLKYFRMSPCDKFRAKG  3.54
26. EEEDLRRRLKYQFMSPCDKFRAKG  3.53
27. EEEDLRRRLKYAFMSPCDKFRAKG  3.53
28. EEEDLRRRNKYFFMSPCDKFRAKG  3.5
29. EEEDLRRRLKYFVMSPCDKFRAKG  3.45
30. EEEDLRRRLKYGFMSPCDKFRAKG  3.43
31. EEEDLRRRLDYFFMSPCDKFRAKG  3.41
32. EEEDLRRRLKYFFMDPCDKFRAKG  3.4
33. EEEDLRRRLKYFSMSPCDKFRAKG  3.37
34. EEEDLRRRRKYFFMSPCDKFRAKG  3.35
35. EEEDLRRRLKPFFMSPCDKFRAKG  3.33
36. EEEDLRRRTKYFFMSPCDKFRAKG  3.33
37. EEEDLRRRHKYFFMSPCDKFRAKG  3.32
38. EEEDLRRRLKYFFNSPCDKFRAKG  3.3
39. EEEDLRRRLKYCFMSPCDKFRAKG  3.27
40. EEEDLRRRLKYFFASPCDKFRAKG  3.27
41. EEEDLRRRMKYFFMSPCDKFRAKG  3.27
42. EEEDLRRRLKYFFMEPCDKFRAKG  3.26
43. EEEDLRRRLKQFFMSPCDKFRAKG  3.25
44. EEEDLRRRLKNFFMSPCDKFRAKG  3.23
45. EEEDLRRRLKYFFMSPEDKFRAKG  3.23
46. EEEDLRRRLKYFKMSPCDKFRAKG  3.23
47. EEEDLRRRLKYFFDSPCDKFRAKG  3.23
48. EEEDLRRRLKYFDMSPCDKFRAKG  3.22
49. EEEDLRRRLNYFFMSPCDKFRAKG  3.21
50. EEEDLRRRLKGFFMSPCDKFRAKG  3.2
51. EEEDLRRRLKYFLMSPCDKFRAKG  3.2
52. EEEDLRRRLKYFFPSPCDKFRAKG  3.16
53. EEEDLRRRLKYFIMSPCDKFRAKG  3.15
54. EEEDLRRRVKYFFMSPCDKFRAKG  3.15
55. EEEDLRRRLKYFFKSPCDKFRAKG  3.14
56. EEEDLRRRLKYFFMSDCDKFRAKG  3.12
57. EEEDLRRRLKYFFMTPCDKFRAKG  3.1
58. EEEDLRRRLKYFFMSPDDKFRAKG  3.08
59. EEEDLRRRLKYFFWSPCDKFRAKG  3.05
60. EEEDLRRRLKYFFQSPCDKFRAKG  3.04
61. EEEDLRRRLKYFWMSPCDKFRAKG  3
62. EEEDLRRRLKYKFMSPCDKFRAKG  2.98
63. EEEDLRRRYKYFFMSPCDKFRAKG  2.97
64. EEEDLRRRLLYFFMSPCDKFRAKG  2.97
65. EEEDLRRRLKYFFSSPCDKFRAKG  2.96
66. EEEDLRRRFKYFFMSPCDKFRAKG  2.96
67. EEEDLRRRLKYFFMSPCDEFRAKG  2.94
68. EEEDLRRRLKVFFMSPCDKFRAKG  2.93
69. EEEDLRRRLKYIFMSPCDKFRAKG  2.93
70. EEEDLRRRLKYRFMSPCDKFRAKG  2.91
71. EEEDLRRRLKYMFMSPCDKFRAKG  2.91
72. EEEDLRRRLKYFFMRPCDKFRAKG  2.91
73. EEEDLRRRLKAFFMSPCDKFRAKG  2.9
74. EEEDLRRRLKYFFMSPPDKFRAKG  2.9
75. EEEDLRRRLKYFFMSPNDKFRAKG  2.89
76. EEEDLRRRKKYFFMSPCDKFRAKG  2.89
77. EEEDLRRRLKSFFMSPCDKFRAKG  2.88
78. EEEDLRRRLKFFFMSPCDKFRAKG  2.88
79. EEEDLRRRLKDFFMSPCDKFRAKG  2.87
80. EEEDLRRRLKYFFISPCDKFRAKG  2.87
81. EEEDLRRRLKYFFMQPCDKFRAKG  2.84
82. EEEDLRRRLKYFFFSPCDKFRAKG  2.83
83. EEEDLRRRLKTFFMSPCDKFRAKG  2.82
84. EEEDLRRRLKYFFMSSCDKFRAKG  2.81
85. EEEDLRRRLKMFFMSPCDKFRAKG  2.79
86. EEEDLRRRLKYFFTSPCDKFRAKG  2.79
87. EEEDLRRRLKYFFMHPCDKFRAKG  2.79
88. EEEDLRRRLPYFFMSPCDKFRAKG  2.79
89. EEEDLRRRLKCFFMSPCDKFRAKG  2.77
90. EEEDLRRRLKYFFMGPCDKFRAKG  2.77
91. EEEDLRRRLKYFFRSPCDKFRAKG  2.73
92. EEEDLRRRLKYYFMSPCDKFRAKG  2.69
93. EEEDLRRRLKYFFMSPGDKFRAKG  2.69
94. EEEDLRRRLKYFFMSTCDKFRAKG  2.68
95. EEEDLRRRLKYFFMSPCYKFRAKG  2.67
96. EEEDLRRRLKYFMMSPCDKFRAKG  2.67
97. EEEDLRRRLEYFFMSPCDKFRAKG  2.67
98. EEEDLRRRLKYFFVSPCDKFRAKG  2.66
99. EEEDLRRRLKKFFMSPCDKFRAKG  2.65
100. EEEDLRRRLKYVFMSPCDKFRAKG  2.65
101. EEEDLRRRLKYFFESPCDKFRAKG  2.65
102. EEEDLRRRLKYFFMKPCDKFRAKG  2.63
103. EEEDLRRRLKYFFMYPCDKFRAKG  2.62
104. EEEDLRRRLKYFFMNPCDKFRAKG  2.62
105. EEEDLRRRLKYFFMSKCDKFRAKG  2.61
106. EEEDLRRRLKYFFMSPHDKFRAKG  2.61
107. EEEDLRRRLKYFFMSPIDKFRAKG  2.59
108. EEEDLRRRLKYFFHSPCDKFRAKG  2.59
109. EEEDLRRRLGYFFMSPCDKFRAKG  2.58
110. EEEDLRRRLKYFFMSPSDKFRAKG  2.54
111. EEEDLRRRLKYFFMSPVDKFRAKG  2.53
112. EEEDLRRRLKYHFMSPCDKFRAKG  2.5
113. EEEDLRRRLKYFFMSPCIKFRAKG  2.49
114. EEEDLRRRLKYFFMWPCDKFRAKG  2.49
115. EEEDLRRRLKHFFMSPCDKFRAKG  2.46
116. EEEDLRRRLKYFFMSPCDDFRAKG  2.45
117. EEEDLRRRLKYFFMSPCVKFRAKG  2.44
118. EEEDLRRRLKYFFMAPCDKFRAKG  2.42
119. EEEDLRRRLKYWFMSPCDKFRAKG  2.39
120. EEEDLRRRLKYFFMSYCDKFRAKG  2.39
121. EEEDLRRRLKRFFMSPCDKFRAKG  2.38
122. EEEDLRRRLKYFFMSPCMKFRAKG  2.35
123. EEEDLRRRLKYFFMSPCDCFRAKG  2.33
124. EEEDLRRRLRYFFMSPCDKFRAKG  2.33
125. EEEDLRRRLKYFFMSPCLKFRAKG  2.32
126. EEEDLRRRWKYFFMSPCDKFRAKG  2.32
127. EEEDLRRRLVYFFMSPCDKFRAKG  2.32
128. EEEDLRRRLSYFFMSPCDKFRAKG  2.3
129. EEEDLRRRLKYFFMSRCDKFRAKG  2.26
130. EEEDLRRRLKYFFMFPCDKFRAKG  2.26
131. EEEDLRRRLQYFFMSPCDKFRAKG  2.26
132. EEEDLRRRLKYFFMSPCWKFRAKG  2.25
133. EEEDLRRRLKYFFCSPCDKFRAKG  2.24
134. EEEDLRRRLKLFFMSPCDKFRAKG  2.23
135. EEEDLRRRLKYFFYSPCDKFRAKG  2.23
136. EEEDLRRRLKYFFMSPADKFRAKG  2.21
137. EEEDLRRRLKYFFMSPCDAFRAKG  2.21
138. EEEDLRRRLKYFFMSPCQKFRAKG  2.2
139. EEEDLRRRLKYFFMSFCDKFRAKG  2.2
140. EEEDLRRRLKYFFMSWCDKFRAKG  2.19
141. EEEDLRRRLKYFFMSPTDKFRAKG  2.19
142. EEEDLRRRLKYFFMSPLDKFRAKG  2.19
143. EEEDLRRRLKYFFMSPCSKFRAKG  2.18
144. EEEDLRRRLCYFFMSPCDKFRAKG  2.15
145. EEEDLRRRLAYFFMSPCDKFRAKG  2.15
146. EEEDLRRRLTYFFMSPCDKFRAKG  2.15
147. EEEDLRRRLKYFFLSPCDKFRAKG  2.14
148. EEEDLRRRLKYFFMSPWDKFRAKG  2.13
149. EEEDLRRRLKYFFMSVCDKFRAKG  2.12
150. EEEDLRRRLKYFFMSACDKFRAKG  2.12
151. EEEDLRRRLKYFFMSNCDKFRAKG  2.11
152. EEEDLRRRLHYFFMSPCDKFRAKG  2.11
153. EEEDLRRRLKYFFMSPKDKFRAKG  2.1
154. EEEDLRRRLKYFFMSPFDKFRAKG  2.1
155. EEEDLRRRLWYFFMSPCDKFRAKG  2.1
156. EEEDLRRRLKYFFMSHCDKFRAKG  2.09
157. EEEDLRRRLKYFFMSPCGKFRAKG  2.06
158. EEEDLRRRLKYFFMSPCHKFRAKG  2.05
159. EEEDLRRRLKYFFMLPCDKFRAKG  2.05
160. EEEDLRRRLKYFFMVPCDKFRAKG  2
161. EEEDLRRRLKYFFMSPMDKFRAKG  1.97
162. EEEDLRRRLKYFFMSICDKFRAKG  1.95
163. EEEDLRRRLKYFFMSPCKKFRAKG  1.94
164. EEEDLRRRLKYFFMSPCEKFRAKG  1.94
165. EEEDLRRRLKYFFMMPCDKFRAKG  1.94
166. EEEDLRRRLKYFFMSPCRKFRAKG  1.93
167. EEEDLRRRLKIFFMSPCDKFRAKG  1.93
168. EEEDLRRRLMYFFMSPCDKFRAKG  1.93
169. EEEDLRRRLKYFFMSGCDKFRAKG  1.92
170. EEEDLRRRIKYFFMSPCDKFRAKG  1.92
171. EEEDLRRRLKYFFMSPCAKFRAKG  1.91
172. EEEDLRRRLKYFFMSECDKFRAKG  1.87
173. EEEDLRRRLKYFFMSCCDKFRAKG  1.84
174. EEEDLRRRLKYFFMSQCDKFRAKG  1.84
175. EEEDLRRRLKYFFMSPCCKFRAKG  1.83
176. EEEDLRRRLKYFFMIPCDKFRAKG  1.82
177. EEEDLRRRLFYFFMSPCDKFRAKG  1.82
178. EEEDLRRRLKYFFMSMCDKFRAKG  1.78
179. EEEDLRRRLKYFFMSPCNKFRAKG  1.77
180. EEEDLRRRLKYFFMSPCPKFRAKG  1.73
181. EEEDLRRRLKYFFMSLCDKFRAKG  1.7
182. EEEDLRRRLYYFFMSPCDKFRAKG  1.67
183. EEEDLRRRLKYFFMCPCDKFRAKG  1.66
184. EEEDLRRRLKYFFMPPCDKFRAKG  1.65
185. EEEDLRRRLIYFFMSPCDKFRAKG  1.62
186. EEEDLRRRLKYFFMSPRDKFRAKG  1.58
187. EEEDLRRRLKYFFMSPCTKFRAKG  1.53
188. EEEDLRRRLKWFFMSPCDKFRAKG  1.42
